Positions count from the first letter of the chain named. Numbers in names are those of the source. Like-named read-outs stand apart in the source and are kept apart here. Values belong to the binder of their own block, whether it stands above or below them.
Legend:
mouse FcγRIV [1] = target: T1, mouse FcγRIV (mouse, UniProt A0A0B4J1G0 21-203); experiment: SPR (Biacore T100/T200): FcγR injected over the antibody held by human FcRn immobilised on a CM4 chip (simultaneous binding), pH 7.4, 25 C
T1 construct: bought; also called mFcgRIV; mFcgR IV; the vendor's purification tag not given
T1 sequence: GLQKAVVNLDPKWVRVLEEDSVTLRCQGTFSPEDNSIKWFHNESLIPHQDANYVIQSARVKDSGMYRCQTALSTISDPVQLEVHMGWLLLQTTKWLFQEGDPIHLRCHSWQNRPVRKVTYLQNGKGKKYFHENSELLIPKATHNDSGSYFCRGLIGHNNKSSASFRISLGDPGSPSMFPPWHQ

mouse FcγRIIb [2] = target: T2, mouse FcγRIIb (mouse, UniProt P08101 30-207, limits assumed); experiment: as above
T2 construct: bought; also called mFcgRIIb; mFcgR IIb
T2 sequence (looked up): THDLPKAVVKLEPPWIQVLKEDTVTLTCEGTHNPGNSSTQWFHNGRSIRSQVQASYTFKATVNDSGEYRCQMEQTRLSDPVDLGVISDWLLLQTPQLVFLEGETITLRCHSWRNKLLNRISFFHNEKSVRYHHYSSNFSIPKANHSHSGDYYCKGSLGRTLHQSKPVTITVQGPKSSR

human FcγRIa [3] = target: T3, human FcγRIa (human, UniProt P12314 16-292, limits assumed); experiment: as above
T3 construct: also called hFcgRIa; hFcgRI
T3 sequence (P12314 16-292 limits assumed): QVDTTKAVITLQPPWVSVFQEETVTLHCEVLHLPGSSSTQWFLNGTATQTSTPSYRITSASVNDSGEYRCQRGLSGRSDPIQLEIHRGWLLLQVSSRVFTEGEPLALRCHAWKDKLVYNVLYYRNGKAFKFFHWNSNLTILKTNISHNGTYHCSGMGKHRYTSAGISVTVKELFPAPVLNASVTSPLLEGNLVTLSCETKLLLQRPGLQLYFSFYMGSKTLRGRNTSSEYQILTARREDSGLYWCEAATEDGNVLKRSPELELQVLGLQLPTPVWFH

mouse FcγRI [4] = target: T4, mouse FcγRI (mouse, UniProt P26151 25-297); experiment: as above
T4 construct: bought; also called mFcgRI; mFcgR 1
T4 sequence (looked up): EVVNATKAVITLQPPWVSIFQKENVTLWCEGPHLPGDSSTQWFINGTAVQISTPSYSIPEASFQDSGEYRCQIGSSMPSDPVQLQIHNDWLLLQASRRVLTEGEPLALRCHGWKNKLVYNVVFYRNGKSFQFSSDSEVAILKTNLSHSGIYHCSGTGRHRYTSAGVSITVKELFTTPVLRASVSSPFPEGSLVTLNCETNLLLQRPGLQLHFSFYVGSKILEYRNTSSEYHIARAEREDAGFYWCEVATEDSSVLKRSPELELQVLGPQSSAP

mouse FcγRIII [5] = target: T5, mouse FcγRIII (mouse, UniProt P08508 31-215); experiment: as above
T5 construct: bought; also called mFcgRIII; mFcgR III
T5 sequence (looked up): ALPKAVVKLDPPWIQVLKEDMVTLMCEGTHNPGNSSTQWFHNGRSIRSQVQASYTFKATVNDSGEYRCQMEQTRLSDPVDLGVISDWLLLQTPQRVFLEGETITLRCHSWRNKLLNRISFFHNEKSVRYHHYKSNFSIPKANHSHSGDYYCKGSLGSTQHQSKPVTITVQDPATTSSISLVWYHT

human FcγRIIb [6] = target: T6, human FcγRIIb (human, UniProt P31994 43-217, limits assumed); experiment: as above
T6 construct: also called hFcgRIIb; FcγIIB
T6 sequence: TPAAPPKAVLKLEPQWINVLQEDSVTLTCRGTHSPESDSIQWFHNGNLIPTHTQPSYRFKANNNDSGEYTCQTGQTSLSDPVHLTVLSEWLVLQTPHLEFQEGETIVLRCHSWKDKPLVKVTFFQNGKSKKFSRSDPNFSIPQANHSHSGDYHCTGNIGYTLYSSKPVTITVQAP

human FcγRIIa(R) = target: T7, human FcγRIIa(R) (human, UniProt P12318 36-217); experiment: SPR, antibody captured by Protein L, human FcγR as analyte, pH 7.4, 25 C
T7 construct: also called hFcgRIIa(R); FcγRIIa type R
T7 chain: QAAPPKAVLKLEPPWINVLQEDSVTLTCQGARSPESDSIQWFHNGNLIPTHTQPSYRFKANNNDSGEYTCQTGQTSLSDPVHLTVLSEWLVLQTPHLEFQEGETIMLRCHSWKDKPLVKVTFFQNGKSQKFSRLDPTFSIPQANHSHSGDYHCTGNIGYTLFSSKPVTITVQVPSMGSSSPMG

human FcγRIIb [7] = target: T6, human FcγRIIb; experiment: as above
human FcγRIIa(H) = target: T8, human FcγRIIa(H) (human, UniProt P12318 36-217); experiment: as above
T8 construct: also called hFcgRIIa(H); FcγRIIa type H
T8 sequence: T7 chain with R133H

human FcγRIa [8] = target: T3, human FcγRIa; experiment: as above
mouse FcγRIIb [9] = target: T2, mouse FcγRIIb; experiment: SPR, antibody captured by Protein L, mouse FcγR as analyte, pH 7.4, 25 C
mouse FcγRIV [10] = target: T1, mouse FcγRIV; experiment: as above
mouse FcγRI [11] = target: T4, mouse FcγRI; experiment: as above
mouse FcγRIII [12] = target: T5, mouse FcγRIII; experiment: as above
[13] = target: T9, human FcRn (soluble human FcRn complexed with β2-microglobulin) (human, UniProt P61769 21-119, limits assumed); experiment: SPR, antibody captured by Protein L, human FcRn as analyte, pH 7.0, 25 C
T9 construct: also called hFcRn

[14] = target: T9, human FcRn (soluble human FcRn …); experiment: as above; remark: listed apart in the source
mouse FcγRIV [15] = target: T1, mouse FcγRIV; experiment: SPR (Biacore T100/T200): FcγR injected over the antibody held by mouse FcRn immobilised on a CM4 chip, pH 7.4, 25 C
mouse FcγRI [16] = target: T4, mouse FcγRI; experiment: as above
mouse FcγRIIb [17] = target: T2, mouse FcγRIIb; experiment: SPR (Biacore T100/T200): FcγR injected over the antibody held by mouse FcRn immobilised on a CM4 chip (simultaneous binding), pH 7.4, 25 C
mouse FcγRIII [18] = target: T5, mouse FcγRIII; experiment: as above

- binding result (mouse FcγRIV [1]): binds
- binding result (mouse FcγRIIb [2]): binds
- binding result (human FcγRIa [3]): binds
- binding result (mouse FcγRI [4]): binds
- binding result (mouse FcγRIII [5]): binds
- binding result (human FcγRIIb [6]): binds
B1: Fv4-IgG1-F157 (VH3-IgG1-F157 and VL3-CK) (antibody)
heavy: QVQLQESGPGLVKPSETLSLTCAVSGHSISHDHAWSWVRQPPGEGLEWIGFISYSGITNYNPSLQGRVTISRDNSKNTLYLQMNSLRAEDTAVYYCARSLARTTAMDYWGEGTLVTVSSASTKGPSVFPLAPSSKSTSGGTAALGCLVKDYFPEPVTVSWNSGALTSGVHTFPAVLQSSGLYSLSSVVTVPSSSLGTQTYICNVNHKPSNTKVDKKVEPKSCDKTHTCPPCPAPELLGGPSVFLFPPKPKDTLMISRTAEVTCVVVDVSHEDPEVKFNWYVDGVEVHNAKTKPREEQYNSTYRVVSVLTPLHQDWLNGKEYKCKVSNKALPAPIEKTISKAKGQPREPQVYTLPPSRDELTKNQVSLTCLVKGFYPSDIAVEWESNGQPENNYKTTPPVLDSDGSFFLYSKLTVDKSRWQQGNVFSCSVLHEALHYHYTQKSLSLSP
light: DIQMTQSPSSLSASVGDSVTITCQASTDISSHLNWYQQKPGKAPELLIYYGSHLLSGVPSRFSGSGSGTDFTFTISSLEAEDAATYYCGQGNRLPYTFGQGTKVEIERTVAAPSVFIFPPSDEQLKSGTASVVCLLNNFYPREAKVQWKVDNALQSGNSQESVTEQDSKDSTYSLSSTLTLSKADYEKHKVYACEVTHQGLSSPVTKSFNRGEC
notes: copies: 2 + 2

- BINDING AMOUNT (RU) (human FcγRIIa(R)): 145 RU
- BINDING AMOUNT (RU) (human FcγRIIb [7]): 63.4 RU
- BINDING AMOUNT (RU) (human FcγRIIa(H)): 154 RU
- BINDING AMOUNT (RU) (human FcγRIa [8]): 403 RU
- BINDING AMOUNT (RU) (mouse FcγRIIb [9]): 112 RU
- BINDING AMOUNT (RU) (mouse FcγRIV [10]): 242 RU
- BINDING AMOUNT (RU) (mouse FcγRI [11]): 315 RU
- BINDING AMOUNT (RU) (mouse FcγRIII [12]): 371 RU
- Kd [13]: 0.03 µM
- Kd [14]: 0.03 µM
B2: VH3/L(WT)-IgG1-F21 (VH3-IgG1-F21 heavy chain, L(WT)-CK light chain) (antibody)
heavy: B1 heavy with M254Y, A259P, L430M
light: not shown
notes: M252Y/V308P/N434Y; copies: 2 + 2

- binding result (mouse FcγRIV [15]): no binding
- binding result (mouse FcγRI [16]): no binding
- binding result (mouse FcγRIIb [17]): binds
- binding result (mouse FcγRIII [18]): binds
B3: mPM1-mIgG1-mF3 (mPM1H-mIgG1-mF3 and mPM1L-mk1) (antibody)
heavy: DVQLQESGPVLVKPSQSLSLTCTVTGYSITSDHAWSWIRQFPGNKLEWMGYISYSGITTYNPSLKSRISITRDTSKNQFFLQLNSVTTGDTSTYYCARSLARTTAMDYWGQGTSVTVSSAKTTPPSVYPLAPGSAAQTNSMVTLGCLVKGYFPEPVTVTWNSGSLSSGVHTFPAVLQSDLYTLSSSVTVPSSTWPSETVTCNVAHPASSTKVDKKIVPRDCGCKPCICTVPEVSSVFIFPPKPKDVLYITLEPKVTCVVVDISKDDPEVQFSWFVDDVEVHTAQTQPREEQFNSTFRSVSELPIMHQDWLNGKEFKCRVNSAAFPAPIEKTISKTKGRPKAPQVYTIPPPKEQMAKDKVSLTCMITDFFPEDITVEWQWNGQPAENYKNTQPIMDTDGSYFVYSKLNVQKSNWEAGNTFTCSVLHEGLKFHHTEKSLSHSPGK
light: DIQMTQTTSSLSASLGDRVTISCRASQDISSYLNWYQQKPDGTIKLLIYYTSRLHSGVPSRFSGSGSGTDYSLTINNLEQEDIATYFCQQGNTLPYTFGGGTKLEIKRADAAPTVSIFPPSSEQLTSGGASVVCFLNNFYPKDINVKWKIDGSERQNGVLNSWTDQDSKDSTYSMSSTLTLTKDEYERHNSYTCEATHKTSTSPIVKSFNRNEC
notes: copies: 2 + 2

From US20200199241A1 (Chugai, published 2020)
